The record followed here is patent US20220363781A1 (SICHUAN KELUN BIOTECH BIOPHARMACEUTICAL, published 2022).

Test [1] has as its target T1, human TSLP-His (human, UniProt Q969D9 29-159).
T1 construct: Whole entry NP_149024.1 is named; Expressed in E. coli or HEK293F; also called hTSLP; hTSLP-His
As to the kind of experiment: ELISA, human TSLP-His coated, antibody titrated, anti-rat Fc-HRP.

The target in test [2] is T2, monkey TSLP-His (cynomolgus monkey, Macaca fascicularis) (cynomolgus monkey (Macaca fascicularis), UniProt A0A7N9CAT7 29-159).
T2 construct: Whole entry XP_005557555.1 is named; also called cTSLP
T2 sequence: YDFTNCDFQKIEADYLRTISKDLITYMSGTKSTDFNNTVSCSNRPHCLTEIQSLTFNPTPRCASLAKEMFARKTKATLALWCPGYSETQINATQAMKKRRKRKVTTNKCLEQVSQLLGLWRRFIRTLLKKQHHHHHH
Nature of the test: ELISA, monkey TSLP-His coated, antibody titrated, anti-rat Fc-HRP. In general terms: ELISA stands for enzyme-linked immunosorbent assay.

Test [3] has as its target T1, human TSLP-His. Nature of the test: ELISA, human TSLP-His coated at 1 µg/mL, hybridoma supernatant, anti-rat IgG-HRP.
The target of test [4] is T1, human TSLP-His. As to the kind of experiment: cell-based or functional assay.
Test [5] has as its target T1, human TSLP-His. Nature of the test: competitive ELISA, hIL7Rα-hTSLPR-hFc coated, hTSLP-His plus hybridoma supernatant, anti-His-HRP.
Test [6] concerns the target T2, monkey TSLP-His (cynomolgus monkey, …). Nature of the test: ELISA, monkey TSLP-His coated at 1 µg/mL, hybridoma supernatant, anti-rat IgG-HRP.
The target of test [7] is T1, human TSLP-His. Nature of the test: competitive ELISA, hIL7Rα-hTSLPR-hFc coated, hTSLP-His plus titrated antibody, anti-His-HRP.
Test [8] has as its target T1, human TSLP-His. As to the kind of experiment: ELISA, human TSLP-His coated, antibody titrated, anti-human Fc-HRP.
Test [9] addresses T2, monkey TSLP-His (cynomolgus monkey, …). Nature of the test: ELISA, monkey TSLP-His coated, antibody titrated, anti-human Fc-HRP.
Test [10] deals with T1, human TSLP-His. Nature of the test: cell-based or functional assay. The source holds these as a separate data set.
The target in test [11] is T1, human TSLP-His. Nature of the test: BLI (Fortebio), antibody on ProA sensor, human TSLP 1.5625-100 nM, 1:1 model. Background: BLI is a label-free optical method that tracks binding on a fibre tip over time.
The target of test [12] is T1, human TSLP-His. Nature of the test: cell-based or functional assay. This is another data set of the same source.
For test [13], the target named is T2, monkey TSLP-His (cynomolgus monkey, …). Nature of the test: BLI (Fortebio), antibody on ProA sensor, monkey TSLP 1.5625-100 nM, 1:1 model.

B1: chimeric antibody 43B1A8 (antibody, V domains shown)
VH: QMQLVESGGGAVQPGRSLRLSCAASGFTFRSYDMHWVRQAPGKGLEWVAVIWYDGSNENYADSVKGRFTTSRDNSKNTLFLQMNSLRAEDTAVYYCARSPLWYGEPDDAFDIWGQGTLVTVSS
VL: EIVMTQSPATLSVSPGERATLSCRASQSVSSNLAWYQQKPGQAPRLLISGASTRATGIPARFSGSGSGTDFTLTISSLRSEDFAVYYCQHYNNWPLTFGGGTKVEIK
notes: Fully human variable regions with rat constant region (rat Fc)
In general, EC50 refers to the concentration at which the effect is half-maximal. The term IC50 denotes the concentration at which inhibition is half-maximal. For B1, the EC50 in test [1] was found to be 0.115 nM; in test [2], 0.568 nM. In addition, the “hTSLP binding (OD450)” value in test [3] is 1.92 OD450. Further, in test [4], the “EC50, blocking human TSLP-induced proliferation of Ba/F3-hTSLPR-hIL7Rα cells (CCK8)” value (“EC50 … (CCK8)” for short) stood at 0.1 nM. Also, the “hTSLP/hIL7Rα-hTSLPR-hFc inhibition rate (%)” value in [5] was found to be 80.7%. Besides, in test [6], the “cTSLP binding (OD450)” value was 1.11 OD450. In test [7], the IC50 was 1.33 nM.

B2: chimeric antibody 27C2B6 (antibody, V domains shown)
VH: QVQLQESGPGLVKPSGTLSLTCAVSGDSISNYNWWSWVRQPPGKGLEWIGEIYHSGRTNYNPSLKSRVTLSVDTSKNQFSLRLSSVTAADTAVYYCARDAPSDYGDYGFFDHWGQGTLVIVSS
VL: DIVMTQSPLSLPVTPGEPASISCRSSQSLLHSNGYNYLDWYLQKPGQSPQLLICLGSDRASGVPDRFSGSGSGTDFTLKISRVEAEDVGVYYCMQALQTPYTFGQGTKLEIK
notes: as for B1
Regarding B2, the EC50 in test [1] came to 0.221 nM; in [2], 0.216 nM. The “hTSLP binding (OD450)” value in [3] amounted to 1.4 OD450. In addition, the “EC50 … (CCK8)” value in test [4] was determined as 1.22 nM. For the same molecule, the “hTSLP/hIL7Rα-hTSLPR-hFc inhibition rate (%)” value in test [5] stood at 69.8%. For the same molecule, the “cTSLP binding (OD450)” value in test [6] is 1.11 OD450. Also, in test [7], the IC50 was found to be 0.77 nM.

B3: recombinant fully human antibody 27C2B6-hIgG (antibody, V domains shown)
VH: B2 VH
VL: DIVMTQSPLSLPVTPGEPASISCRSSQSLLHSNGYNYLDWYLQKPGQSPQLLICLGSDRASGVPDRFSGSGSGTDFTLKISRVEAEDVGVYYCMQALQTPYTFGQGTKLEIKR
In the case of B3, the figures for the concentration for a half-maximal effect (EC50) in [8] and in test [9] were 1.62 nM and 0.18 nM, respectively. Further, in test [10], the “hTSLP EC50, inhibition of the proliferation of Ba/F3-hTSLPR-hIL7Rα cells” value (“hTSLP EC50, inhibition” below) was 0.064 nM.

B4: recombinant fully human antibody 90H3H11-hIgG (antibody, V domains shown)
VH: QVQLVESGGGVVQPGRSLRLSCAASGFTISNHDIHWVRQAPGKGLEWVTLIWYDGSNQYYADSVKGRFTISRDNSKNTVYLQMNSLRAEDTAVYYCARDDYADYVYFHHWGQGTLVTVSS
VL: DIQMTQSPSSLSASVGDRVTITCRASQNINSYLNWYRQKPGKAPELLIYAASSLQSGVPSRFSGSGSGTDFTLTISSLQPEDFATYYCQQSYSTPYTFGQGTELEIKR
Broadly, the Kd is the equilibrium constant for the complex coming apart. B4 displayed a half-maximal effective concentration (EC50) in test [8] of 1.36 nM. This molecule yielded a Kd in test [11] of 0.604 nM. Further, the “EC50, inhibition of human TSLP-induced PBMC secretion of TARC” value in test [12] was 0.42 nM. Further, in test [10], the “hTSLP EC50, inhibition” value is 0.05 nM.

B5: chimeric antibody 90H3H11 (antibody, V domains shown)
VH: B4 VH
VL: DIQMTQSPSSLSASVGDRVTITCRASQNINSYLNWYRQKPGKAPELLIYAASSLQSGVPSRFSGSGSGTDFTLTISSLQPEDFATYYCQQSYSTPYTFGQGTELEIK
notes: as for B1
Molecule B5 showed an EC50 in test [1] of 0.139 nM. The “hTSLP binding (OD450)” value in [3] was 0.7 OD450. Moreover, in [4], the “EC50 … (CCK8)” value came out at 0.25 nM. In addition, in test [5], the “hTSLP/hIL7Rα-hTSLPR-hFc inhibition rate (%)” value came out at 87%. Also, the IC50 in [7] was determined as 1.65 nM.

B6: chimeric antibody 37C2D10 (antibody, V domains shown)
VH: QVQLQESGPGLVKPSGTLSLTCAVSGDSISSDNWWNWVRQPPGKGLQWIGEIFHSGRTNYNPSLKSRVTISVDMSKNQFSLKLSSVTAADTAVYFCARDAPNDYGDYGFFDYWGQGILVTVSS
VL: DIVMTQSPLSLPVTPGEPASISCRSSQSLLHSNEYNYLDWYLQKPGQSPQLLIYLGSDRASGVPDRFSGSGSGTDFTLKISRVEAEDVGIYYCMQALQTPYTFGQGTKLEIK
notes: as for B1
For B6, the concentration giving a half-maximal response (EC50) in test [1] was 0.3 nM; in [2], 0.495 nM. Besides, the “hTSLP binding (OD450)” value in [3] is 1.1 OD450. Moreover, in test [4], the “EC50 … (CCK8)” value turned out to be 0.28 nM. In addition, in test [5], the “hTSLP/hIL7Rα-hTSLPR-hFc inhibition rate (%)” value is 81%. For the same molecule, in [6], the “cTSLP binding (OD450)” value turned out to be 1.12 OD450. Also, the IC50 in test [7] was 0.51 nM.

B7: recombinant fully human antibody 37C2D10-hIgG (antibody, V domains shown)
VH: B6 VH
VL: DIVMTQSPLSLPVTPGEPASISCRSSQSLLHSNEYNYLDWYLQKPGQSPQLLIYLGSDRASGVPDRFSGSGSGTDFTLKISRVEAEDVGIYYCMQALQTPYTFGQGTKLEIKR
Consider B7, for which the Kd in test [13] was found to be 20.1 nM; in [11], 1.76 nM. The EC50 in test [8] was found to be 0.9 nM; in [9] it was 0.17 nM. Also, the “hTSLP EC50, inhibition” value in test [10] was 0.06 nM.

B8: chimeric antibody 25A5C5 (antibody, V domains shown)
VH: EVQLVESGGGLVQPGGSLRLSCAASRFTFSRYWMNWVRQAPGKGLEWVANIKQDGNEKYYVDSVKGRFTISRDNAKNSLYLQMNSLRAEDTAVYYCARDRVVGAPDTFDIWGQGTMVTVSS
VL: not shown
notes: From hybridoma of H2L2 mice: fully human variable regions with rat constant region (rat Fc)
In test [1], B8 displayed an EC50 of 0.208 nM. In addition, the “hTSLP binding (OD450)” value in test [3] turned out to be 2.4 OD450. The “EC50 … (CCK8)” value in test [4] worked out at 0.11 nM. In addition, the “hTSLP/hIL7Rα-hTSLPR-hFc inhibition rate (%)” value in [5] turned out to be 95.9%. Also, the IC50 in test [7] was determined as 0.89 nM.

B9: recombinant fully human antibody 25A5C5-hIgG (antibody, V domains shown)
VH: B8 VH
VL: not shown
In [8], B9 had an EC50 of 1.45 nM. Also, the binding result in test [9] is reported as “no binding”. The molecule also gave a Kd in [11] of 0.558 nM. Besides, the “hTSLP EC50, inhibition” value in test [10] was 0.044 nM.
